Laboratory results taken from patent publication US20140271478A1 (University of California, published 2014).
Positions count from the first letter of the chain named.

T1: human integrin β8 swap construct KKMALF (SEQ ID NO:132) (human, UniProt P26012 43-769)
T1 sequence: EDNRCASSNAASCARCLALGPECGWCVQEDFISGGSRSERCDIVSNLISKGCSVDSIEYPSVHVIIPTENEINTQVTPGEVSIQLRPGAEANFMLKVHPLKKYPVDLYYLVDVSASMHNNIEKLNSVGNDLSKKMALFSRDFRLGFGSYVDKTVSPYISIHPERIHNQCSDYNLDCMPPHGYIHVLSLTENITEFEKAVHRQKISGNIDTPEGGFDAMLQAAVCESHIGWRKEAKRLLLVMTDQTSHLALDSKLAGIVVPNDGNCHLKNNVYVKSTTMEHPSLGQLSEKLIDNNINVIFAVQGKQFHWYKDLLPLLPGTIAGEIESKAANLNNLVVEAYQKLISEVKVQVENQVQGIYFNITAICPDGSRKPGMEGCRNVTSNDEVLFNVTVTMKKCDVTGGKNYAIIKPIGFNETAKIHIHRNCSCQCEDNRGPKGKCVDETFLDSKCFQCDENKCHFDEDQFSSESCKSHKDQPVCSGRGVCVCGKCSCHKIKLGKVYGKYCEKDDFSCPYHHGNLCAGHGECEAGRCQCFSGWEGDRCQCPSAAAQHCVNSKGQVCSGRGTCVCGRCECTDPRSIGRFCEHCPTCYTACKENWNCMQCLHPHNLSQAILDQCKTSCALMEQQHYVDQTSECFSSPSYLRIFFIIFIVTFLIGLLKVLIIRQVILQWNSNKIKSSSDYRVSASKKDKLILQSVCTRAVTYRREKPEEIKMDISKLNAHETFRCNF

T2: human integrin β8 swap construct KKMAFF (SEQ ID NO:133) (human, UniProt P26012 43-769)
T2 sequence: T1 sequence with L137F

T3: mouse integrin β8 (mouse, UniProt Q0VBD0 22-767)
T3 construct: whole, on cells; also called mouse β8; itgb8
T3 sequence (looked up): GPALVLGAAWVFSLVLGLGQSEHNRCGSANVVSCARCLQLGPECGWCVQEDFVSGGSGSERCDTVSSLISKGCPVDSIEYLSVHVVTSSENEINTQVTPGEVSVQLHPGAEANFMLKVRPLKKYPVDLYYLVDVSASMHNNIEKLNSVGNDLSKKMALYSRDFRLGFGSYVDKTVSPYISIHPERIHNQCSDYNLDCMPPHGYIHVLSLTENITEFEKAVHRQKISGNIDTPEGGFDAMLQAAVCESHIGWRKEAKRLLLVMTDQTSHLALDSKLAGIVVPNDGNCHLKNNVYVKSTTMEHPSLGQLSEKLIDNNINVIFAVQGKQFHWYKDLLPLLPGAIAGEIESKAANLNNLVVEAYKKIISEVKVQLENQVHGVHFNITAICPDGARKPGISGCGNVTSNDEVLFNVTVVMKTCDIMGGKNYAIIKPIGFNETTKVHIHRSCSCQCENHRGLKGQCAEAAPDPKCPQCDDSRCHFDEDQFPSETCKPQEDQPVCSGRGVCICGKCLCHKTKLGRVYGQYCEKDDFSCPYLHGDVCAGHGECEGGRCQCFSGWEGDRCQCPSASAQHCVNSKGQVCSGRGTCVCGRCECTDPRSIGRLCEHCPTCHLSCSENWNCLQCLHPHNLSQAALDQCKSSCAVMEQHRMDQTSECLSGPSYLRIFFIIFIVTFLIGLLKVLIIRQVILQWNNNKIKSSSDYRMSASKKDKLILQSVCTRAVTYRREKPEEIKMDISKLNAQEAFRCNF

B1: 14E5 antibody (antibody, V domains shown)
VH: EVQLQQSGAELMKPGASVKISCKATGYTFSTYWIEWIKQRPGHGLEWIGHILPGSVITNYNEKFKGKAAITADTSSNTSYMQLSSLTSEDSAVYYCARWGWDSYWGQGTLVTVSS
VL: DIEMTQSPSSLSASLGDRVTISCSTSQDISSSLNWYQQKPDGTVTLLIYYTSNLHSGVPSRFSGSGSGTDYSLTISNLEPEDIATYYCQQYSKLPYTFGGGTKLEIKR
notes: Mouse hybridoma antibody; also called hybridoma clone 14E5
B2: 11E8 antibody (antibody, V domains shown)
VH: EVQLQQSGPELMKTGASVKISCKATGYTFSSYWIEWVKQRPGHGLEWIGDILPGSGTTNYNEKFKGRATVTADRSSNTAYMQLSSLTYGDSAVYYCATWGWDTYWDQGTSVTVSS
VL: B1 VL with E3V, T25A, D28G, S31N, S32Y, T45K, N53S, K93N
notes: Mouse hybridoma antibody
B3: 37E1B5 antibody (antibody, V domains shown)
VH: EVQLVESGGGLVQPGGSLNLSCAVSGFVFSRYWMSWVRQAPGKGLEWIGEINPDSSTINYTSSLKDKFIISRDNAKNTLYLQMNKVRSEDTALYYCACLITTEDYWGQGTSVTVSS
VL: QIVLTQSPSSMYASLGERVTIPCKASQDINSYLSWFQQKPGKSPKTLIYYANRLVDGVPSRFSGSGSGQDYSLTISSLEYEDMGIYYCLQYDEFPYTFGGGTKLEIK

These binders were tested against T4, human integrin αβ8 (αvβ8) expressed on cells (human, UniProt P06756 31-1048) (assay: cell staining of β8 amino acid swap constructs (175-180)).
T4 construct: whole, on cells; β8 transfected into or endogenous on cells, unfixed or formalin fixed; also called human integrin β8; ITGB8
T4 sequence (P06756 31-1048): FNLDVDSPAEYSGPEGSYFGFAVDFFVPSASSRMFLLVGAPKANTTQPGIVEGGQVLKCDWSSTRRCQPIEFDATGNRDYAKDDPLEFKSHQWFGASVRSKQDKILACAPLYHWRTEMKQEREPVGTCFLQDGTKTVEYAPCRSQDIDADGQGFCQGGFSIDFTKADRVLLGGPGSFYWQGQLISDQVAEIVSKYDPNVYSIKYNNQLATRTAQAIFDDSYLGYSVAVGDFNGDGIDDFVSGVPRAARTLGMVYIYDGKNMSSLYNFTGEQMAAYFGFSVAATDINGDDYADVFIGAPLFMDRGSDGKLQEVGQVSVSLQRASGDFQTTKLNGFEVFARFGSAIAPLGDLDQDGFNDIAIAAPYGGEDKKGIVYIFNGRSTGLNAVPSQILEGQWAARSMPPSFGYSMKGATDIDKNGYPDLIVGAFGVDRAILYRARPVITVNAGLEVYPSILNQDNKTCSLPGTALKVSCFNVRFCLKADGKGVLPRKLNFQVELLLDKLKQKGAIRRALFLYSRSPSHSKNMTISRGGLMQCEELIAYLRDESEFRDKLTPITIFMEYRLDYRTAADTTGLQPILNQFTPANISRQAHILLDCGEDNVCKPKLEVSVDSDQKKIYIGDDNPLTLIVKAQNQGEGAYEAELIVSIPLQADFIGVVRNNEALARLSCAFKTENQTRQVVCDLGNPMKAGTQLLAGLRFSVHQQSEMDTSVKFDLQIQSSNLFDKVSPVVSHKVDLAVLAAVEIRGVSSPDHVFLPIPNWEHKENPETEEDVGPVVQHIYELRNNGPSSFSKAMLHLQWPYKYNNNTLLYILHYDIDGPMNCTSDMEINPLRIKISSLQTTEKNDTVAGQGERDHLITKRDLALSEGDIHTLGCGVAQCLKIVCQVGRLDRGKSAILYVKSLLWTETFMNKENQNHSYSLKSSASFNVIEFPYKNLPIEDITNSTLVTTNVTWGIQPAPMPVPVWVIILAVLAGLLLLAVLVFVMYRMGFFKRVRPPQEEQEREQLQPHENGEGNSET
B1 was tested, and the “% positive” value was 112%.
With B2 the “% positive” value was 97%.
B3 was tested, and the “% positive” value was 108%.

Each binder was assayed against T1, human integrin β8 swap construct KKMALF … in the same assay as above.
For B1, the “% positive” value was 1%.
B2 was tested, and the “% positive” value was 3%.
In the case of B3, the “% positive” value is reported as 31%.

The binders below were run against T2, human integrin β8 swap construct KKMAFF … in the same assay as above.
With B1 the “% positive” value was 9%.
B2 was tested, and the “% positive” value was 115%.
B3 was tested, and the “% positive” value was 116%.

Each binder was assayed against T3, mouse integrin β8 in the same assay as above.
For B1, the “% positive” value was 0%.
In the case of B2, the “% positive” value is reported as 0%.
In the case of B3, the “% positive” value is reported as 0%.
